Experimental data as given in PMC10786891, “Massively parallel profiling of RNA-targeting CRISPR-Cas13d”.
Numbering of substitutions follows the chain as printed. In names and notes the source's numbering stands.

T1: EsCas13d, nuclease-dead (Eubacterium siraeum, UniProt B0MS50, R295A;H300A;R849A;H854A)
T1 sequence: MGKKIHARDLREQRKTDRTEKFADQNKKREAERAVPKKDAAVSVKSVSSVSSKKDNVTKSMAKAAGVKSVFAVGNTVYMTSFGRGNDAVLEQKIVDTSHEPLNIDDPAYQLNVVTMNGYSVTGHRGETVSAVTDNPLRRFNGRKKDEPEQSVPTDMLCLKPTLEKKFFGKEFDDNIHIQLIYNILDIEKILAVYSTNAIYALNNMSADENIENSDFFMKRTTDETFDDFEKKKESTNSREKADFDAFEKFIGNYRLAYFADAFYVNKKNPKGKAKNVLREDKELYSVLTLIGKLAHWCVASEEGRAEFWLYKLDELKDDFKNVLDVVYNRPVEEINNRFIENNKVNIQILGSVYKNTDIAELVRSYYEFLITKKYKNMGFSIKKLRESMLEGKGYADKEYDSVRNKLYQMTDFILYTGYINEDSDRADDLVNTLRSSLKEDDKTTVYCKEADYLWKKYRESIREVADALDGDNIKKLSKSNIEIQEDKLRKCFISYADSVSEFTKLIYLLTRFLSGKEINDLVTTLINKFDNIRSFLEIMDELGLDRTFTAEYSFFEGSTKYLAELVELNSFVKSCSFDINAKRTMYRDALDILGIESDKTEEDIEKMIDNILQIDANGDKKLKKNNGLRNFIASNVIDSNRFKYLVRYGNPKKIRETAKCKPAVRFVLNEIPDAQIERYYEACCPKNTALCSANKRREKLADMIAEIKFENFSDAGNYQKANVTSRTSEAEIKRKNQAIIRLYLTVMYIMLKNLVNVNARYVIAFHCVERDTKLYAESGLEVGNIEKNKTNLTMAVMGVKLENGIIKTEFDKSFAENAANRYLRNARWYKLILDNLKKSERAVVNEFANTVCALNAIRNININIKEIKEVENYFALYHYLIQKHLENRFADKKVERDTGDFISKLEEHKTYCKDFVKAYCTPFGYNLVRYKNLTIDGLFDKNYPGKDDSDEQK

B1: target 1 U3A,C7G (mixed)
RNA 1: CACCCGUGCAAAAAUGCAGGGGUCUAAAACUGAGCGGAUAACCUCUCUAUGG
RNA 2: GGGAAUGGAUCCACAUCUACGAAUUCGUACCAUAGAGAGGUUAUGCGCACACCGAGAUCGGAAGAGCACACGU
B2: target 1 insU 3' of 9,insG 3' of 8 (mixed)
RNA 1: B1 RNA 1
RNA 2: GGGAAUGGAUCCACAUCUACGAAUUCGUACCAUAGAGAGGUUAUUGCCGCUCACCGAGAUCGGAAGAGCACACGU
B3: target 1 U11G,A16U (mixed)
RNA 1: B1 RNA 1
RNA 2: B1 RNA 2 with A36U, U41G, G45C, A49U
B4: target 2 MT 5'PFS GUG 3'PFS CGU (mixed)
RNA 1: CACCCGUGCAAAAUUGCAGGGGUCUAAAACCUUCUCCAAAUUGUUUCAUCCU
RNA 2: GGGAAUGGAUCCACAUCUACGAAUUCGUGAGGAUGAAACAAUUUGGAGAAGCGUAGAUCGGAAGAGCACACGU
B5: target 2 MT 5'PFS CUU 3'PFS CCA (mixed)
RNA 1: B4 RNA 1
RNA 2: B4 RNA 2 with G27C, G29U, G53C, U54A
B6: target 2 MT 5'PFS GAA 3'PFS CGA (mixed)
RNA 1: B4 RNA 1
RNA 2: B4 RNA 2 with U28A, G29A, U54A
B7: target 2 MT 5'PFS CGG 3'PFS AUA (mixed)
RNA 1: B4 RNA 1
RNA 2: B4 RNA 2 with G27C, U28G, C52A, G53U, U54A
B8: target 2 MT 5'PFS UUA 3'PFS AAU (mixed)
RNA 1: B4 RNA 1
RNA 2: B4 RNA 2 with G27U, G29A, C52A, G53A
B9: target 2 MT 5'PFS GCU 3'PFS CUA (mixed)
RNA 1: B4 RNA 1
RNA 2: B4 RNA 2 with U28C, G29U, G53U, U54A
B10: target 2 MT 5'PFS AAU 3'PFS AAC (mixed)
RNA 1: B4 RNA 1
RNA 2: B4 RNA 2 with G27A, U28A, G29U, C52A, G53A, U54C
B11: target 2 MT 5'PFS AAU 3'PFS AAU (mixed)
RNA 1: B4 RNA 1
RNA 2: B4 RNA 2 with G27A, U28A, G29U, C52A, G53A
B12: target 2 MT 5'PFS AUG 3'PFS CGC (mixed)
RNA 1: B4 RNA 1
RNA 2: B4 RNA 2 with G27A, U54C
B13: target 2 MT 5'PFS UUC 3'PFS CCC (mixed)
RNA 1: B4 RNA 1
RNA 2: B4 RNA 2 with G27U, G29C, G53C, U54C
B14: target 2 MT 5'PFS AAG 3'PFS AUU (mixed)
RNA 1: B4 RNA 1
RNA 2: B4 RNA 2 with G27A, U28A, C52A, G53U
B15: target 2 MT 5'PFS CUU 3'PFS CCG (mixed)
RNA 1: B4 RNA 1
RNA 2: B4 RNA 2 with G27C, G29U, G53C, U54G
B16: target 2 MT 5'PFS AAG 3'PFS AUC (mixed)
RNA 1: B4 RNA 1
RNA 2: B4 RNA 2 with G27A, U28A, C52A, G53U, U54C
B17: target 2 MT 5'PFS UUA 3'PFS AAG (mixed)
RNA 1: B4 RNA 1
RNA 2: B4 RNA 2 with G27U, G29A, C52A, G53A, U54G
B18: target 2 MT 5'PFS UGC 3'PFS CGG (mixed)
RNA 1: B4 RNA 1
RNA 2: B4 RNA 2 with G27U, U28G, G29C, U54G
B19: target 2 MT 5'PFS GAA 3'PFS CGC (mixed)
RNA 1: B4 RNA 1
RNA 2: B4 RNA 2 with U28A, G29A, U54C
B20: target 2 MT 5'PFS AAU 3'PFS AAA (mixed)
RNA 1: B4 RNA 1
RNA 2: B4 RNA 2 with G27A, U28A, G29U, C52A, G53A, U54A
B21: target 2 MT 5'PFS CGG 3'PFS AUC (mixed)
RNA 1: B4 RNA 1
RNA 2: B4 RNA 2 with G27C, U28G, C52A, G53U, U54C
B22: target 2 MT 5'PFS CGG 3'PFS AUU (mixed)
RNA 1: B4 RNA 1
RNA 2: B4 RNA 2 with G27C, U28G, C52A, G53U
B23: target 2 MT 5'PFS UUA 3'PFS AAA (mixed)
RNA 1: B4 RNA 1
RNA 2: B4 RNA 2 with G27U, G29A, C52A, G53A, U54A
B24: target 2 MT 5'PFS GCU 3'PFS CUG (mixed)
RNA 1: B4 RNA 1
RNA 2: B4 RNA 2 with U28C, G29U, G53U, U54G
B25: target 2 MT 5'PFS UGA 3'PFS ACC (mixed)
RNA 1: B4 RNA 1
RNA 2: B4 RNA 2 with G27U, U28G, G29A, C52A, G53C, U54C
B26: target 2 MT 5'PFS AAU 3'PFS AAG (mixed)
RNA 1: B4 RNA 1
RNA 2: B4 RNA 2 with G27A, U28A, G29U, C52A, G53A, U54G
B27: target 2 MT 5'PFS GAA 3'PFS CGG (mixed)
RNA 1: B4 RNA 1
RNA 2: B4 RNA 2 with U28A, G29A, U54G
B28: target 2 MT 5'PFS UUA 3'PFS AAC (mixed)
RNA 1: B4 RNA 1
RNA 2: B4 RNA 2 with G27U, G29A, C52A, G53A, U54C
B29: target 2 MT 5'PFS UGA 3'PFS ACU (mixed)
RNA 1: B4 RNA 1
RNA 2: B4 RNA 2 with G27U, U28G, G29A, C52A, G53C
B30: target 2 MT 5'PFS AGG 3'PFS AAA (mixed)
RNA 1: B4 RNA 1
RNA 2: B4 RNA 2 with G27A, U28G, C52A, G53A, U54A
B31: target 2 MT 5'PFS UGA 3'PFS AGC (mixed)
RNA 1: B4 RNA 1
RNA 2: B4 RNA 2 with G27U, U28G, G29A, C52A, U54C
B32: target 2 MT 5'PFS UGA 3'PFS ACG (mixed)
RNA 1: B4 RNA 1
RNA 2: B4 RNA 2 with G27U, U28G, G29A, C52A, G53C, U54G
B33: target 2 MT 5'PFS UAU 3'PFS UCU (mixed)
RNA 1: B4 RNA 1
RNA 2: B4 RNA 2 with G27U, U28A, G29U, C52U, G53C
B34: target 2 MT 5'PFS UGC 3'PFS CGC (mixed)
RNA 1: B4 RNA 1
RNA 2: B4 RNA 2 with G27U, U28G, G29C, U54C
B35: target 2 MT 5'PFS UCA 3'PFS UGU (mixed)
RNA 1: B4 RNA 1
RNA 2: B4 RNA 2 with G27U, U28C, G29A, C52U
B36: target 2 MT 5'PFS GAA 3'PFS AUU (mixed)
RNA 1: B4 RNA 1
RNA 2: B4 RNA 2 with U28A, G29A, C52A, G53U
B37: target 2 MT 5'PFS CUU 3'PFS CCC (mixed)
RNA 1: B4 RNA 1
RNA 2: B4 RNA 2 with G27C, G29U, G53C, U54C
B38: target 2 MT 5'PFS UGA 3'PFS ACA (mixed)
RNA 1: B4 RNA 1
RNA 2: B4 RNA 2 with G27U, U28G, G29A, C52A, G53C, U54A

What follows are binders tested against T1, EsCas13d, nuclease-dead (assay: crRNA (strand 1, pre-loaded); Mg2+; 40 mM Tris-HCl pH 7.5, 150 mM NaCl, 6 mM MgCl2, 1 mM DTT, 0.1% Tween-20, 0.2 mg/ml BSA; 25 C; 10 min per concentration, then washed). Conditions: tags: His6-TwinStrep-SUMO cleaved; N-terminal SNAP kept (SNAP-Surface 488); label: 3' end held by stalled T7 RNA polymerase.
B1 was tested, and the Kd was 6.64 ± 0.29 nM.
B2 gave a Kd of 8.3 ± 0.5 nM.
B3 gave a Kd of 82 ± 12 nM.
B4 gave a Kd of 14.7 ± 1.3 nM.
B5 showed a Kd of 8.9 ± 1.1 nM.
Binder B6 has a Kd of 9.2 ± 1.7 nM.
Work on B7 yielded a Kd of 4.1 ± 0.5 nM.
With B8 the Kd was 18 ± 5 nM.
In the case of B9, the Kd is reported as 17 ± 5 nM.
Binder B10 has a Kd of 5.2 ± 0.8 nM.
B11 showed a Kd of 4.1 ± 0.6 nM.
B12 gave a Kd of 8.1 ± 0.8 nM.
For B13, the Kd was about 29 nM.
Work on B14 yielded a Kd of 4.1 ± 0.5 nM.
Work on B15 yielded a Kd of 6 ± 0.4 nM.
Work on B16 yielded a Kd of 5.2 ± 0.9 nM.
Work on B17 yielded a Kd of 17.5 ± 1.8 nM.
B18 showed a Kd of 38 ± 6 nM.
For B19, the Kd was 7.4 ± 0.5 nM.
With B20 the Kd was 3.2 ± 0.5 nM.
B21 was tested, and the Kd was 6.8 ± 1.1 nM.
Binder B22 has a Kd of 4.01 ± 0.28 nM.
Binder B23 has a Kd of 14.6 ± 2.7 nM.
For B24, the Kd was 30 ± 11 nM.
Binder B25 has a Kd of 16 ± 4 nM.
For B26, the Kd was 5.5 ± 0.9 nM.
With B27 the Kd was 9.6 ± 1.5 nM.
B28 was tested, and the Kd was 18.7 ± 3.1 nM.
With B29 the Kd was 15.6 ± 3.5 nM.
Binder B30 has a Kd of 4.3 ± 0.9 nM.
B31 gave a Kd of 6 ± 0.9 nM.
B32 gave a Kd of 11.6 ± 1.9 nM.
Work on B33 yielded a Kd of 81 ± 23 nM.
B34 was tested, and the Kd was 66 ± 11 nM.
In the case of B35, the Kd is reported as 7.8 ± 1.1 nM.
B36 showed a Kd of 7.3 ± 1.1 nM.
Binder B37 has a Kd of 18 ± 9 nM.
B38 gave a Kd of 9.1 ± 1 nM.
